Four molecules from US6949506B2, “Relaxin-like factor and methods and uses thereof” (BAS Medical, Inc., priority 1995, dated 2005) can be followed below.

Positions of bridges follow the written chain, without caps; N, C: chain ends. Chains are numbered I, II in the order given. No end group written: not given here.

Assay [1] has as its system collagen expression, rheumatoid synovial fibroblasts (Strain No. RSF64). Kind of assay: Inhibition of collagen expression by synovial fibroblasts. It is filed as cell-based, human. The procedure: The method for detecting and measuring collagen formation in the presence of relaxin described in Unemori and Amento, 1990, J. Biol. Chem. 265:10681-685 has been modified as follows to determine the ability of RLF, in vitro, to modulate the expression of collagen. Materials and Methods. Rheumatoid synovial fibroblasts (Strain No. […] The cells were simultaneously biosynthetically labelled with ^3H=[…] μCi/ml) in the presence of ascorbate and BAPN. After 24 hours, the conditioned media were collected and electrophoresed on 4-12% polyacrylamide gels (NOVEX) under reducing conditions. Gels were enhanced, dried, and exposed to X-ray films for 1-2 weeks. Collagen bands were identified on the X-ray films as bacterial collagenase-sensitive, proline-incorporating bands between 95-200 kDa. Band density was quantified by scanning densitometry and used as estimates of collagen expression.

The test system of assay [2] is crude membrane preparations of leg muscles, kidneys, liver, brain, and uterus. Kind of assay: Tissue specificity of 125I-RLF binding. The note with it: skeletal muscle, kidney and liver tested, female estrogen primed mice. Also on record: species or system mouse. The procedure:
FIG. 6. FIG. 6 depicts the tissue distribution of RLF receptors in female estrogen primed mice as measured in vitro in a receptor-binding assay.
Tissue specificity was determined using crude membrane preparations of leg muscles, kidneys, liver. brain, and uterus (of estrogen primed mice). The crude membranes were prepared as described for relaxin. Binding was based on protein concentration determined by Lowry.

In assay [3] the target is RLF receptor of mouse uterus (mouse). Kind of assay: displacement of 125I-RLF tracer, mouse uterus crude membranes; amount of competitor at 50% binding.
Assay [4] addresses mouse brain relaxin receptor (mouse). Kind of assay: displacement of porcine relaxin tracer, mouse brain crude membranes.
Assay [5] addresses RLF receptor of mouse brain (mouse). Kind of assay: displacement of 125I-RLF tracer, mouse brain crude membranes; amount of competitor at 50% binding. For orientation: Loss of bound radioactivity is the signal in a displacement assay; it reports binding, not function.
Assay [6] concerns the target mouse brain relaxin receptor (mouse). Kind of assay: displacement of porcine relaxin tracer, mouse brain crude membranes; amount of competitor at 50% binding.
Assay [7] deals with mouse uterine relaxin receptor (mouse). Kind of assay: displacement of porcine relaxin tracer, mouse uterus crude membranes; amount of competitor at 50% binding.
mouse uterine relaxin receptor (mouse), sequence (Q6R6I7 whole entry): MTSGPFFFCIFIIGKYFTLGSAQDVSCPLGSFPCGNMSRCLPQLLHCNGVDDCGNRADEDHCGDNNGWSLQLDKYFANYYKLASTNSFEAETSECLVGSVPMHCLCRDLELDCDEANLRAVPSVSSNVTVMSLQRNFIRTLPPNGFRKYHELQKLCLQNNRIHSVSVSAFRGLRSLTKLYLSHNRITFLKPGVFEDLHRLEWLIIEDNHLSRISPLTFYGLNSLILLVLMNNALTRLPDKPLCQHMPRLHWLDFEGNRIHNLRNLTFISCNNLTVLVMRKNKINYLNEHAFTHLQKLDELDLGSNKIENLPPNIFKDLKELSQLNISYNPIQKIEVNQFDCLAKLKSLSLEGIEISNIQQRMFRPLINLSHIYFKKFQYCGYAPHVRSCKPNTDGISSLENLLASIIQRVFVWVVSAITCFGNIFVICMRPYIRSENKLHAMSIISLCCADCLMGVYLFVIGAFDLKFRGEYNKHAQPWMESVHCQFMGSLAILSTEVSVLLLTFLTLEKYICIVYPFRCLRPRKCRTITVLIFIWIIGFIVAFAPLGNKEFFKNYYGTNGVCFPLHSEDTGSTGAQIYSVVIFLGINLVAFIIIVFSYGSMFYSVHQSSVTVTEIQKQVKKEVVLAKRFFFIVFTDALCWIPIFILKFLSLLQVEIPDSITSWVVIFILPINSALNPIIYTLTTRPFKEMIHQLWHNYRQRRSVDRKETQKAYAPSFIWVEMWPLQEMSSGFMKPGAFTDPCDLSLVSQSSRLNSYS

RLF receptor of mouse uterus (mouse), sequence (Q91ZZ5 whole entry): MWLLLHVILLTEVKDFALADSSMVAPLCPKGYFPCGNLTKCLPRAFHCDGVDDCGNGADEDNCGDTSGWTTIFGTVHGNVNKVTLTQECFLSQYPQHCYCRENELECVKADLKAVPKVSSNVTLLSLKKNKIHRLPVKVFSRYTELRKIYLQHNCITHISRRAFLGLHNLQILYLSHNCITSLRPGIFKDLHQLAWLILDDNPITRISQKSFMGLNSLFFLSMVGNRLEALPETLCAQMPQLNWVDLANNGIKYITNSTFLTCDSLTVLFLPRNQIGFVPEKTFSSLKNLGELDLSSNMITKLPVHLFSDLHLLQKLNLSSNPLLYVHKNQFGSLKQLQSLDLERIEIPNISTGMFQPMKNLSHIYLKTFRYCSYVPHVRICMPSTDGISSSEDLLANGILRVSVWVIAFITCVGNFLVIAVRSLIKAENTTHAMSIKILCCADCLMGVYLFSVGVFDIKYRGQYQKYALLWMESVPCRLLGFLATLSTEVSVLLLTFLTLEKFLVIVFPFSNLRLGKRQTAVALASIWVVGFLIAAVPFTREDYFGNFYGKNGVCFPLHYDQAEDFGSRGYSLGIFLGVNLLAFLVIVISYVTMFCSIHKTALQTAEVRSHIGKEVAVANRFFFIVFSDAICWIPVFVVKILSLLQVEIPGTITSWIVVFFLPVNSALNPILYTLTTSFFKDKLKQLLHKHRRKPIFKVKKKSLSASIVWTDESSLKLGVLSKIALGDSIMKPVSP

As to TGF-β [reference compound], the “increase of collagen expression over untreated fibroblasts” value in assay [1] is reported as 3.75 fold.
With “^125I-RLF: 125I-labeled RLF used as tracer (chain 1 AAATNPARYCCLSGCTQQDLLTLCPY; chain 2 PTPEMREKLCGHHFVRALVRVCGGPRWSTEA; disulfide I:11-II:10; cysteine pairing not given here; also: 125I-labeled (site not given here))”, the “tissues showing specific binding” value in assay [2] is “only the brain- and the uterus membrane preparation showed specific binding”.

B1: human relaxin-like factor (RLF), synthetic (ligand)
chain 1: AAATNPARYCCLSGCTQQDLLTLCPY
chain 2: PTPEMREKLCGHHFVRALVRVCGGPRWSTEA
On to B1, for which the 50% Binding in assay [3] is 0.3 ng; in assay [5], 0.3 ng; in assay [6] it was 200 ng; in assay [7], 10000 ng. In assay [4], this molecule gave an excess that displaces 50% of the relaxin tracer of 100 fold excess.

B2: human relaxin (ligand)
chain 1: QLYSALANKCCHVGCTKRSLARFC
chain 2: DSWMEEVIKLCGRELVRAQIAICGMSTWS
In the case of B2, the 50% Binding in assay [3] worked out at 800 ng; in assay [5], 1000 ng; in assay [6], 1 ng; in assay [7], 1 ng.
